For series [1], the target named is superoxide dismutase (Bos taurus, UniProt P00442). Nature of the series: SOD enzyme activity by the method of McCord et al (residual activity vs starting SOD). It counts as biochemical, bovine; human. The protocol:
(§1) The residual activity was obtained by the following method.
(§2) The concentration of each enzyme was obtained by the absorption method as mentioned above, and the residual activity was calculated from a comparison in activity after the reaction.

Series [2] relates to superoxide dismutase. The description is as above. It counts as biochemical, bovine; human. The procedure:
as §1, §2

For series [3], the system named is Lewis-lung tumor. Nature of the series: Prevention of tumor metastasis (Lewis-lung tumor implanted in mice). It counts as in vivo, C57BL-6 mice. As to conditions: for Inhibition ratio (%) (number of tumor colonies) / Inhibition ratio (%) (weight of lung tumor) / Mean number of tumor colonies / Mean weight of lung tumor: 2 mg/kg i.v. The protocol:
10^6 cells of Lewis-lung tumor were implanted onto the foot of a number of C57BL-6 mice, and the implanted tumor was removed at seventh day after the transplantation (n=7).
The modified SOD (m-SOD) obtained in Example 1 was dissolved in a saline solution (5 mg by SOD content in 1 ml saline solution). To the mice, the modified SOD solution (2 mg by SOD content per kg) was injected intravenously once a day for 5 days from the seventh day or fourteenth day after the transplantation.
On the 22nd day after the transplantation, the lungs were taken out and the number of colonies of metastasizing cells was determined. The inhibition of the metastasis was evaluated by the decrease of the number of colonies and the weight of metastasizing lung tumor.

Series [4] is described as follows: Survival of SOD activity in the blood circulation (plasma SOD activity after i.v. infusion). It counts as in vivo, Wister rats. As to conditions: for Half life (half survival time of SOD activity in the circulation) / Time to 30% residual activity: 20 mg SOD content/kg, femoral vein, rats. The protocol: For each stabilized SOD obtained in the Examples, the survival time in the blood circulation was measured as follows. Four Wister rats, seven weeks old and weighing 249 to 277 g, were used for each sample. The rats were infused with 20 mg of the sample (20 mg SOD content for the modified SOD; 5 mg per rat) dissolved in a saline solution (0.5 ml per rat) per kg of body weight through the femoral vein, and samples of blood, each 0.2 ml, were withdrawn 5, 15 and 30 minutes and 1, 2, 4, 8, 24 and 48 hours after the injection. Each blood sample was centrifuged, and the SOD activity of the plasma was determined by the method of J. M. McCord et al (J. Biol. Chem.,.244, No. 22, 6049-55, 1969).

In series [5] the test system is superoxide dismutase. As to conditions: starting material as purchased; cited from earlier work.

Data on 3 substances can be found in patent US5066590A, “Superoxide dismutase combined with a poly(alkylene oxide)” (Ajinomoto Co., Inc., priority 1985, dated 1991).

Chain of superoxide dismutase (Bos taurus, UniProt P00442) (P00442 2-152 limits assumed): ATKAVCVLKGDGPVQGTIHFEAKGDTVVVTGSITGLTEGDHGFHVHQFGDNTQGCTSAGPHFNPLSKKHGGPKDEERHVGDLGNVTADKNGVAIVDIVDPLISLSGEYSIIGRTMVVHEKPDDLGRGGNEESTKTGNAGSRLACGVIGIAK

“Example 1: bovine SOD amide-linked to α-carboxymethyl, ω-carboxymethoxy polyoxyethylene (molecular weight about 4000), 2.4 molecules per enzyme” returned a total activity in series [1] (freeze-dried stabilized SOD) of 236000 units. Moreover, the total activity in series [1] (reaction mixture after completion of the reaction) is recorded as 285000 units. Further, in series [1] (reaction mixture after completion of the reaction, in comparison with the original SOD), the residual activity (commonly what remains of the control signal, in per cent) worked out at 95±5%. The “Residual enzyme activity (%)” value in series [2] (Table 1, stabilized SOD of Examples) is reported as 95%. The same substance registered a residual activity in series [2] (isolated stabilized SOD, text of Examples) of 95%. In series [3] (5 injections after 7th day), the “Inhibition ratio (%) (number of tumor colonies)” value came to 65%, the “Inhibition ratio (%) (weight of lung tumor)” value stood at 66%, the “Mean number of tumor colonies” value is reported as 10.5 and the “Mean weight of lung tumor” value came out at 0.15 g. In series [3] (5 injections after 14th day), the “Inhibition ratio (%) (number of tumor colonies)” value was 72%, the “Inhibition ratio (%) (weight of lung tumor)” value was determined as 77%, the “Mean number of tumor colonies” value is reported as 8.4 and the “Mean weight of lung tumor” value is recorded as 0.10 g. In series [3] ("decreased below 40%"), the “number of colonies as compared to the non-treated mice” value was “below 40%” and the “weight of tumor as compared to the non-treated mice” value is “below 40%”. For the same substance, in series [4], the “Half life (half survival time of SOD activity in the circulation)” value (“Half life” for short) turned out to be 240 min and the “Time to 30% residual activity” value came out at 10 h. The “activity in the blood circulation with time” value in series [4] (FIG. 5) is “rapidly reduces after a few hours from the adminstration, and then it reduces slowly”.
Turning to “human SOD: SOD derived from human erythrocyte purchased from Sigma Co.”, the “specific activity of purchased SOD” value in series [5] is 2300 units/mg. Further, in series [4], the “Half life” value was found to be 6 min and the “Time to 30% residual activity” value came out at 0.15 h.
For “bovine SOD: Superoxide dismutase derived from a bovine blood produced by Toyobo Co., Japan”, the “specific activity of purchased SOD” value in series [5] is on record as 3000 units/mg. Also, in series [4], the “Half life” value stood at 6 min and the “Time to 30% residual activity” value is 0.15 h.
